Legend:
ROR1 Ig-like domain = target: T1, ROR1 Ig-like domain (human, UniProt Q01973 42-147); assay: BLI, IgG1 on biosensor, soluble ROR1 domain
T1 construct: also called Acro Cat. No. RO1-H5221
From the text: (§1) To measure binding affinity in ROR binder discovery campaigns, the VL and VH domains identified in the phage screen described above were formatted into a bivalent monospecific native human full-length IgG1 architecture and immobilized to a biosensor on an Octet (Pall ForteBio) biolayer interferometer. Soluble ROR antigens, including the extracellular domains of ROR1 (Acro Cat. No. RO1-H522γ) and ROR2 (Acro Cat. No. R02-H52E5), as well as the individual ROR1 Frizzled (Acro Cat. No. RO1-H5222), Ig-like (Acro Cat. No. RO1-H5221), and Kringle (Acro Cat. No. RO1-H5223) domains, were then added to the system and binding measured.
(§2) ROR binding candidates, formatted in the bivalent monospecific native human full-length IgG1 architecture, were further characterized for binding to ROR1 and/or ROR2. […] ROR binding candidates were also characterized for their binding to specific ROR1 domains.

[1] = target: T2, extracellular domain of human ROR1 (human, UniProt Q01973 30-406); assay: BLI, IgG1 on biosensor, soluble ROR ectodomain
T2 construct: bought protein; biotinylated in the bivalent assay format; also called Acro Cat. No. RO1-H522y
From the text: as §1, §2

[2] = target: T3, extracellular domain of human ROR2 (human, UniProt Q01974 34-403); assay: BLI, IgG1 on biosensor, soluble ROR ectodomain
T3 construct: bought protein; biotinylated in the bivalent assay format; also called Acro Cat. No. RO2-H52E5
From the text: as §1, §2

T3 sequence (Q01974 34-403 limits assumed): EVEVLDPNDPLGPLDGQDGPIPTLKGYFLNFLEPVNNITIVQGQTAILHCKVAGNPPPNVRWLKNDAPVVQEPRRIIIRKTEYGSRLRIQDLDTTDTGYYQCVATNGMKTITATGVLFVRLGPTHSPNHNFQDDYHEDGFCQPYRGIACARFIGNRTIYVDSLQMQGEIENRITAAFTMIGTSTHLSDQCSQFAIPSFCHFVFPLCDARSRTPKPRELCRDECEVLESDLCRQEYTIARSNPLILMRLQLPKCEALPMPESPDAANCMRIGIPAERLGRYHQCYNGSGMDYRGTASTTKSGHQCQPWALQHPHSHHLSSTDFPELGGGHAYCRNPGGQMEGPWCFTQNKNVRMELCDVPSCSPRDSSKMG
T1 sequence (Q01973 42-147): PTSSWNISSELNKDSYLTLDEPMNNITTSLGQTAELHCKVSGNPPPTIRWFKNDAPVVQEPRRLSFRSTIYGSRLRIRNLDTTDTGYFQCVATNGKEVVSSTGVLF
T2 sequence (Q01973 30-406 limits assumed): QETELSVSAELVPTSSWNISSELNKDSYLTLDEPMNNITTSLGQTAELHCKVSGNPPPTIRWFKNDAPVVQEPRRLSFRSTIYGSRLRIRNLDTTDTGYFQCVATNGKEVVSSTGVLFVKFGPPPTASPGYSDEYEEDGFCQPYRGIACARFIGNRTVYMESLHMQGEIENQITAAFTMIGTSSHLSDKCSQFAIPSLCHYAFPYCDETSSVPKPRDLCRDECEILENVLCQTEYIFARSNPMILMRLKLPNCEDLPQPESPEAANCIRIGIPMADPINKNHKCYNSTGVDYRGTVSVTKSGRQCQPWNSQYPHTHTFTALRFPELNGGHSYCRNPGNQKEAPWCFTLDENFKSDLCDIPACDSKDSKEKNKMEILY

Row | binding result (ROR1 Ig-like domain) | binding result [1] | binding result [2] | Binder
1 | binds | binds | binds | I2C-15 IgG1 (antibody, V domains shown, human IgG1) VH: EVQLVESGGGLVQPGGSLRLSCAASGFTFSSYFIHWVRQAPGKGLEWVALIYPDTDDTYYADSVKGRFTISADTSKNTAYLQMNSLRAEDTAVYYCARYGYLGVGAFDYWGQGTLVTVSS VL: DIQMTQSPSSLSASVGDRVTITCRASQSVSSAVAWYQQKPGKAPKLLIYSASSLYSGVPSRFSGSRSGTDFTLTISSLQPEDFATYYCQQLYWTPGTFGQGTKVEIK
2 | binds | binds | binds | I2A-16 IgG1 (antibody, V domains shown, human IgG1) VH: EVQLVESGGGLVQPGGSLRLSCAASGFTFSGYFIHWVRQAPGKGLEWVAAIFPYRGGTSYADSVKGRFTISADTSKNTAYLQMNSLRAEDTAVYYCARGGVSPGGFDYWGQGTLVTVSS VL: DIQMTQSPSSLSASVGDRVTITCRASQSVSSAVAWYQQKPGKAPKLLIYSASSLYSGVPSRFSGSRSGTDFTLTISSLQPEDFATYYCQQYYLYPGTFGQGTKVEIK
3 | binds | binds | no binding | I2A-6 IgG1 (antibody, V domains shown, human IgG1) VH: EVQLVESGGGLVQPGGSLRLSCAASGFTFSLYAIHWVRQAPGKGLEWVAEIDSWLGYTYYADSVKGRFTISADTSKNTAYLQMNSLRAEDTAVYYCARRPVTEVYYSALDYWGQGTLVTVSS VL: DIQMTQSPSSLSASVGDRVTITCRASQSVSSAVAWYQQKPGKAPKLLIYSASSLYSGVPSRFSGSRSGTDFTLTISSLQPEDFATYYCQQYDRSLHTFGQGTKVEIK
4 | binds | binds | binds | I2C-12 IgG1 (antibody, V domains shown, human IgG1) VH: EVQLVESGGGLVQPGGSLRLSCAASGFTFSSYFIHWVRQAPGKGLEWVAAIHPAFSFTYYADSVKGRFTISADTSKNTAYLQMNSLRAEDTAVYYCARPRLSSAVVLDYWGQGTLVTVSS VL: DIQMTQSPSSLSASVGDRVTITCRASQSVSSAVAWYQQKPGKAPKLLIYSASSLYSGVPSRFSGSRSGTDFTLTISSLQPEDFATYYCQQGYYFPGTFGQGTKVEIK
5 | binds | binds | binds | I2A-22 IgG1 (antibody, V domains shown, human IgG1) VH: EVQLVESGGGLVQPGGSLRLSCAASGFTFSSYFIHWVRQAPGKGLEWVAAIYPSGWYTSYADSVKGRFTISADTSKNTAYLQMNSLRAEDTAVYYCARVQAGVFDYWGQGTLVTVSS VL: DIQMTQSPSSLSASVGDRVTITCRASQSVSSAVAWYQQKPGKAPKLLIYSASSLYSGVPSRFSGSRSGTDFTLTISSLQPEDFATYYCQQYYYYPGTFGQGTKVEIK
6 | binds | binds | no binding | I2A-20 IgG1 (antibody, V domains shown, human IgG1) VH: EVQLVESGGGLVQPGGSLRLSCAASGFTFSDYGIHWVRQAPGKGLEWVAEIDSWLGYTYYADSVKGRFTISADTSKNTAYLQMNSLRAEDTAVYYCARSPYHYLYYGLDYWGQGTLVTVSS VL: DIQMTQSPSSLSASVGDRVTITCRASQSVSSAVAWYQQKPGKAPKLLIYSASSLYSGVPSRFSGSRSGTDFTLTISSLQPEDFATYYCQQLSSSLGTFGQGTKVEIK
7 | binds | binds | binds | I2C-24 IgG1 (antibody, V domains shown, human IgG1) VH: EVQLVESGGGLVQPGGSLRLSCAASGFTFSRYYIHWVRQAPGKGLEWVADIDSYGGFTYYADSVKGRFTISADTSKNTAYLQMNSLRAEDTAVYYCARAHRFLQGGYVLDYWGQGTLVTVSS VL: DIQMTQSPSSLSASVGDRVTITCRASQSVSSAVAWYQQKPGKAPKLLIYSASSLYSGVPSRFSGSRSGTDFTLTISSLQPEDFATYYCQQYSWGLWTFGQGTKVEIK
8 | binds | binds | binds | I2A-1 IgG1 (antibody, V domains shown, human IgG1) VH: EVQLVESGGGLVQPGGSLRLSCAASGFTFSSYFIHWVRQAPGKGLEWVAAIYPEGGYTYYADSVKGRFTISADTSKNTAYLQMNSLRAEDTAVYYCARDYKYVGALDYWGQGTLVTVSS VL: DIQMTQSPSSLSASVGDRVTITCRASQSVSSAVAWYQQKPGKAPKLLIYSASSLYSGVPSRFSGSRSGTDFTLTISSLQPEDFATYYCQQYYYFPGTFGQGTKVEIK
9 | binds | binds | binds | I2C-10 IgG1 (antibody, V domains shown, human IgG1) VH: EVQLVESGGGLVQPGGSLRLSCAASGFTFSSYFIHWVRQAPGKGLEWVATIHSYFDGTSYADSVKGRFTISADTSKNTAYLQMNSLRAEDTAVYYCARTRPTGGAFDYWGQGTLVTVSS VL: DIQMTQSPSSLSASVGDRVTITCRASQSVSSAVAWYQQKPGKAPKLLIYSASSLYSGVPSRFSGSRSGTDFTLTISSLQPEDFATYYCQQAYWSPATFGQGTKVEIK
10 | binds | binds | binds | I2C-17 IgG1 (antibody, V domains shown, human IgG1) VH: EVQLVESGGGLVQPGGSLRLSCAASGFTFSDYFIHWVRQAPGKGLEWVAYIYPASGGTCYADSVKGRFTISADTSKNTAYLQMNSLRAEDTAVYYCARGYIPHMAALDYWGQGTLVTVSS VL: DIQMTQSPSSLSASVGDRVTITCRASQSVSSAVAWYQQKPGKAPKLLIYSASSLYSGVPSRFSGSRSGTDFTLTISSLQPEDFATYYCQQYYWWPGTFGQGTKVEIK
11 | binds | binds | no binding | I2A-3 IgG1 (antibody, V domains shown, human IgG1) VH: EVQLVESGGGLVQPGGSLRLSCAASGFTFTSYEIHWVRQAPGKGLEWVAHIDPYGGYTQYADSVKGRFTISADTSKNTAYLQMNSLRAEDTAVYYCARRGVAVFDYWGQGTLVTVSS VL: DIQMTQSPSSLSASVGDRVTITCRASQSVSSAVAWYQQKPGKAPKLLIYSASSLYSGVPSRFSGSRSGTDFTLTISSLQPEDFATYYCQQWAYAPVTFGQGTKVEIK
12 | binds | binds | no binding | I2A-4 IgG1 (antibody, V domains shown, human IgG1) VH: EVQLVESGGGLVQPGGSLRLSCAASGFTFYSYDIHWVRQAPGKGLEWVAYISPYWGITTYADSVKGRFTISADTSKNTAYLQMNSLRAEDTAVYYCARYIGSSYWDALDYWGQGTLVTVSS VL: DIQMTQSPSSLSASVGDRVTITCRASQSVSSAVAWYQQKPGKAPKLLIYSASSLYSGVPSRFSGSRSGTDFTLTISSLQPEDFATYYCQQSDSSLVTFGQGTKVEIK
13 | binds | binds | binds | I2A-14 IgG1 (antibody, V domains shown, human IgG1) VH: EVQLVESGGGLVQPGGSLRLSCAASGFTFDSYVIHWVRQAPGKGLEWVAYIFSFGGYTYYADSVKGRFTISADTSKNTAYLQMNSLRAEDTAVYYCARSPYGTFALDYWGQGTLVTVSS VL: DIQMTQSPSSLSASVGDRVTITCRASQSVSSAVAWYQQKPGKAPKLLIYSASSLYSGVPSRFSGSRSGTDFTLTISSLQPEDFATYYCQQYYYTPGTFGQGTKVEIK
14 | binds | binds | binds | I2C-1 IgG1 (antibody, V domains shown, human IgG1) VH: EVQLVESGGGLVQPGGSLRLSCAASGFTFTSYGIHWVRQAPGKGLEWVAAIYPHSGFTSYADSVKGRFTISADTSKNTAYLQMNSLRAEDTAVYYCARTSYRGFDYWGQGTLVTVSS VL: DIQMTQSPSSLSASVGDRVTITCRASQSVSSAVAWYQQKPGKAPKLLIYSASSLYSGVPSRFSGSRSGTDFTLTISSLQPEDFATYYCQQYYWYPGTFGQGTKVEIK
15 | binds | binds | binds | I2C-2 IgG1 (antibody, V domains shown, human IgG1) VH: EVQLVESGGGLVQPGGSLRLSCAASGFTFSDYFIHWVRQAPGKGLEWVAGIYPYSGYTKYADSVKGRFTISADTSKNTAYLQMNSLRAEDTAVYYCARDHSPVLDYWGQGTLVTVSS VL: DIQMTQSPSSLSASVGDRVTITCRASQSVSSAVAWYQQKPGKAPKLLIYSASSLYSGVPSRFSGSRSGTDFTLTISSLQPEDFATYYCQQWYYWPGTFGQGTKVEIK
16 | binds | binds | binds | I2C-11 IgG1 (antibody, V domains shown, human IgG1) VH: EVQLVESGGGLVQPGGSLRLSCAASGFTFGSYFIHWVRQAPGKGLEWVAAIFPAGGYTYYADSVKGRFTISADTSKNTAYLQMNSLRAEDTAVYYCARYGSMGGAFDYWGQGTLVTVSS VL: DIQMTQSPSSLSASVGDRVTITCRASQSVSSAVAWYQQKPGKAPKLLIYSASSLYSGVPSRFSGSRSGTDFTLTISSLQPEDFATYYCQQYYWFPGTFGQGTKVEIK
17 | binds | binds | binds | I2C-16 IgG1 (antibody, V domains shown, human IgG1) VH: EVQLVESGGGLVQPGGSLRLSCAASGFTFSSYWIHWVRQAPGKGLEWVAAIHPSGSYTYYADSVKGRFTISADTSKNTAYLQMNSLRAEDTAVYYCARVGLLVTSVMDYWGQGTLVTVSS VL: DIQMTQSPSSLSASVGDRVTITCRASQSVSSAVAWYQQKPGKAPKLLIYSASSLYSGVPSRFSGSRSGTDFTLTISSLQPEDFATYYCQQYYYFPGTFGQGTKVEIK

— US20240392002A1 (EXELIXIS, published 2024)
